{
  "source": "paper PMC8291714",
  "origin": "cited, not measured here",
  "target": "N protein (N-RNA ring) (Rabies lyssavirus) (UniProt Q8JXF6)",
  "sequence (Q8JXF6 whole entry)": "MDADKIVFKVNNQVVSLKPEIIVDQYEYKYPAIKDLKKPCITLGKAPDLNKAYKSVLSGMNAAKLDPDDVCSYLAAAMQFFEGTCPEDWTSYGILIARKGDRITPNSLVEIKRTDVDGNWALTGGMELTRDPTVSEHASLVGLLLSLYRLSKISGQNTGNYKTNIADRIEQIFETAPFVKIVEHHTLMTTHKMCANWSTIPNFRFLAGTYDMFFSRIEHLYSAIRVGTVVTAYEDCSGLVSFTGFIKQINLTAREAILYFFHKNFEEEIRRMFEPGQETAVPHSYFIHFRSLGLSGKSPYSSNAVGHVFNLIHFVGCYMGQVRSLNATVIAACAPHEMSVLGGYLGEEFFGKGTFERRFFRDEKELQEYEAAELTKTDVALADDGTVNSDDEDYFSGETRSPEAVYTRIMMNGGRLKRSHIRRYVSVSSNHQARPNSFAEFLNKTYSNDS",
  "data": [
    {"substance": "P protein CTD (from UniProt P22363)", "values": [
      {"measurement": "Kd", "result": 160, "unit": "nM"}
    ]}
  ]
}
